Measured values published in PMC5216731.
pKd: −log10 of the molar value.

Molecular target: GST-obscurin-PH (human) (UniProt Q5VST9)
Assay: SPR; Biacore 3000; GST-obscurin-PH immobilised on a CM5 chip, HIS-PI3K-p85/SH3 as analyte at 8-250 nM, 20 ul/min, 180 s association, 180 s dissociation; 1:1 Langmuir model

UniProt Q5VST9, sequence (Q5VST9 5895-6004): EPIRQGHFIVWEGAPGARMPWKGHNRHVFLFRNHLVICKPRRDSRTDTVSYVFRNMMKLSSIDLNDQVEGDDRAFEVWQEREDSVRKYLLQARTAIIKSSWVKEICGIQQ

A pKd of 7.30 was found for “HIS-PI3K/p85-SH3 (from UniProt O00459 4-80) (domain or fragment)” in this work.
